The source of these data is publication PMC4731797.

The target of the test is E. coli 70S ribosome (E. coli (endogenous in MRE600)) (UniProt P0AG67). The experiment in a line: co-purification with ribosomes isolated from cell extract; 70S ribosomes from E. coli MRE600, low salt wash (0.75 M NH4Cl; 0.6 M for 2D-PAGE); 12% SDS-PAGE and 2D-PAGE, MALDI-TOF/TOF mass spectrometry, western blot with anti-AdhE; occupancy from band intensities with L2 as 100%.

Regarding “aldehyde-alcohol dehydrogenase E (AdhE), co-purified with the E. coli 70S ribosome (from UniProt P0A9Q7 1-891) (natural protein)”, the occupancy turned out to be 50%. Turning to “outer membrane protein C (OmpC), co-purified with the E. coli 70S ribosome (from UniProt P06996 22-367) (natural protein)”, the occupancy is 60%.
